Changes are numbered by the printed parent chain. In names and notes the source's numbering stands.
B1: Variant A2M, bait region SEQ ID NO 137, P01023 24-1474 (protein)
chain: SVSGKPQYMVLVPSLLHTETTEKGCVLLSYLNETVTVSASLESVRGNRSLFTDLEAENDVLHCVAFAVPKSSSNEEVMFLTVQVKGPTQEFKKRTTVMVKNEDSLVFVQTDKSIYKPGQTVKFRVVSMDENFHPLNELIPLVYIQDPKGNRIAQWQSFQLEGGLKQFSFPLSSEPFQGSYKVVVQKKSGGRTEHPFTVEEFVLPKFEVQVTVPKIITILEEEMNVSVCGLYTYGKPVPGHVTVSICRKYSDASDCHGEDSQAFCEKFSGQLNSHGCFYQQVKTKVFQLKRKEYEMKLHTEAQIQEEGTVVELTGRQSSEITRTITKLSFVKVDSHFRQGIPFFGQVRLVDGKGVPIPNKVIFIRGNEANYYSNATTDEHGLVQFSINTTNVMGTSLTVRVNYKDRSPCYGYQWVSEEHEEAHHTAYLVFSPSKSFVHLEPMSHELPCGHTQTVQAHYILNGGTLLGLKKLSFYYLIMAKGGIVRTGTHGLLVKQEDMKGHFSISIPVKSDIAPVARLLIYAVLPTGDVIGDSAKYDVENCLANKVDLSFSPSQSLPASHAHLRVTAAPQSVCALRAVDQSVLLMKPDAELSASSVYNLLPEKDLTGFPGPLNDQDDEDCINRHNVYINGITYTPVSSTNEKDMYSFLEDMGLKAFTNSKIRKPKMCPQLEQYEMHGPSEDLVVQIKEEEGLGSIPENFFGVSELEGRGSVEEPHTKLRKYFPETWIWDLVVVNSAGVAEVGVTVPDTITEWKAGAFCLSEDAGLGISSTASLRAFQPFFVELTMPYSVIRGEAFTLKATVLNYLPKCIRVSVQLEASPAFLAVPVEKEQAPHCICANGRQTVSWAVTPKSLGNVNFTVSAEALESQELCGTEVPSVPEHGRKDTVIKPLLVEPEGLEKETTFNSLLCPSGGEVSEELSLKLPPNVVEESARASVSVLGDILGSAMQNTQNLLQMPYGCGEQNMVLFAPNIYVLDYLNETQQLTPEIKSKAIGYLNTGYQRQLNYKHYDGSYSTFGERYGRNQGNTWLTAFVLKTFAQARAYIFIDEAHITQALIWLSQRQKDNGCFRSSGSLLNNAIKGGVEDEVTLSAYITIALLEIPLTVTHPVVRNALFCLESAWKTAQEGDHGSHVYTKALLAYAFALAGNQDKRKEVLKSLNEEAVKKDNSVHWERPQKPKAPVGHFYEPQAPSAEVEMTSYVLLAYLTAQPAPTSEDLTSATNIVKWITKQQNAQGGFSSTQDTVVALHALSKYGAATFTRTGKAAQVTIQSSGTFSSKFQVDNNNRLLLQQVSLPELPGEYSMKVTGEGCVYLQTSLKYNILPEKEEFPFALGVQTLPQTCDEPKAHTSFQISLSVSYTGSRSASNMAIVDVKMVSGFIPLKPTVKMLERSNHVSRTEVSSNHVLIYLDKVSNQTLSLFFTVLQDVPVRDLKPAIVKVYDYYETDEFAIAEYNAPCSKDLGNADYKDDDDKGASHHHHHH
B2: Variant A2M, bait region SEQ ID NO 138, P01023 24-1474 (protein)
chain: B1 chain with K686E, E687G, E689G, G690E, L691G, G692E, S693G, S702K, L704E, R707L
B3: Variant A2M, bait region SEQ ID NO 139, P01023 24-1474 (protein)
chain: SVSGKPQYMVLVPSLLHTETTEKGCVLLSYLNETVTVSASLESVRGNRSLFTDLEAENDVLHCVAFAVPKSSSNEEVMFLTVQVKGPTQEFKKRTTVMVKNEDSLVFVQTDKSIYKPGQTVKFRVVSMDENFHPLNELIPLVYIQDPKGNRIAQWQSFQLEGGLKQFSFPLSSEPFQGSYKVVVQKKSGGRTEHPFTVEEFVLPKFEVQVTVPKIITILEEEMNVSVCGLYTYGKPVPGHVTVSICRKYSDASDCHGEDSQAFCEKFSGQLNSHGCFYQQVKTKVFQLKRKEYEMKLHTEAQIQEEGTVVELTGRQSSEITRTITKLSFVKVDSHFRQGIPFFGQVRLVDGKGVPIPNKVIFIRGNEANYYSNATTDEHGLVQFSINTTNVMGTSLTVRVNYKDRSPCYGYQWVSEEHEEAHHTAYLVFSPSKSFVHLEPMSHELPCGHTQTVQAHYILNGGTLLGLKKLSFYYLIMAKGGIVRTGTHGLLVKQEDMKGHFSISIPVKSDIAPVARLLIYAVLPTGDVIGDSAKYDVENCLANKVDLSFSPSQSLPASHAHLRVTAAPQSVCALRAVDQSVLLMKPDAELSASSVYNLLPEKDLTGFPGPLNDQDDEDCINRHNVYINGITYTPVSSTNEKDMYSFLEDMGLKAFTNSKIRKPKMCPQLEQYEMHGPSEDLVVQIEGEGEGEGIPENFFGVEAIPMSIPTEPHTKLRKYFPETWIWDLVVVNSAGVAEVGVTVPDTITEWKAGAFCLSEDAGLGISSTASLRAFQPFFVELTMPYSVIRGEAFTLKATVLNYLPKCIRVSVQLEASPAFLAVPVEKEQAPHCICANGRQTVSWAVTPKSLGNVNFTVSAEALESQELCGTEVPSVPEHGRKDTVIKPLLVEPEGLEKETTFNSLLCPSGGEVSEELSLKLPPNVVEESARASVSVLGDILGSAMQNTQNLLQMPYGCGEQNMVLFAPNIYVLDYLNETQQLTPEIKSKAIGYLNTGYQRQLNYKHYDGSYSTFGERYGRNQGNTWLTAFVLKTFAQARAYIFIDEAHITQALIWLSQRQKDNGCFRSSGSLLNNAIKGGVEDEVTLSAYITIALLEIPLTVTHPVVRNALFCLESAWKTAQEGDHGSHVYTKALLAYAFALAGNQDKRKEVLKSLNEEAVKKDNSVHWERPQKPKAPVGHFYEPQAPSAEVEMTSYVLLAYLTAQPAPTSEDLTSATNIVKWITKQQNAQGGFSSTQDTVVALHALSKYGAATFTRTGKAAQVTIQSSGTFSSKFQVDNNNRLLLQQVSLPELPGEYSMKVTGEGCVYLQTSLKYNILPEKEEFPFALGVQTLPQTCDEPKAHTSFQISLSVSYTGSRSASNMAIVDVKMVSGFIPLKPTVKMLERSNHVSRTEVSSNHVLIYLDKVSNQTLSLFFTVLQDVPVRDLKPAIVKVYDYYETDEFAIAEYNAPCSKDLGNADYKDDDDKGASHHHHHH
B4: Variant A2M, bait region SEQ ID NO 142, P01023 24-1474 (protein)
chain: SVSGKPQYMVLVPSLLHTETTEKGCVLLSYLNETVTVSASLESVRGNRSLFTDLEAENDVLHCVAFAVPKSSSNEEVMFLTVQVKGPTQEFKKRTTVMVKNEDSLVFVQTDKSIYKPGQTVKFRVVSMDENFHPLNELIPLVYIQDPKGNRIAQWQSFQLEGGLKQFSFPLSSEPFQGSYKVVVQKKSGGRTEHPFTVEEFVLPKFEVQVTVPKIITILEEEMNVSVCGLYTYGKPVPGHVTVSICRKYSDASDCHGEDSQAFCEKFSGQLNSHGCFYQQVKTKVFQLKRKEYEMKLHTEAQIQEEGTVVELTGRQSSEITRTITKLSFVKVDSHFRQGIPFFGQVRLVDGKGVPIPNKVIFIRGNEANYYSNATTDEHGLVQFSINTTNVMGTSLTVRVNYKDRSPCYGYQWVSEEHEEAHHTAYLVFSPSKSFVHLEPMSHELPCGHTQTVQAHYILNGGTLLGLKKLSFYYLIMAKGGIVRTGTHGLLVKQEDMKGHFSISIPVKSDIAPVARLLIYAVLPTGDVIGDSAKYDVENCLANKVDLSFSPSQSLPASHAHLRVTAAPQSVCALRAVDQSVLLMKPDAELSASSVYNLLPEKDLTGFPGPLNDQDDEDCINRHNVYINGITYTPVSSTNEKDMYSFLEDMGLKAFTNSKIRKPKMCPQLEQYEMHGPSELEGRGSIPENFFGVEGEGEGEGKEEEGLGSVEEPHTKLRKYFPETWIWDLVVVNSAGVAEVGVTVPDTITEWKAGAFCLSEDAGLGISSTASLRAFQPFFVELTMPYSVIRGEAFTLKATVLNYLPKCIRVSVQLEASPAFLAVPVEKEQAPHCICANGRQTVSWAVTPKSLGNVNFTVSAEALESQELCGTEVPSVPEHGRKDTVIKPLLVEPEGLEKETTFNSLLCPSGGEVSEELSLKLPPNVVEESARASVSVLGDILGSAMQNTQNLLQMPYGCGEQNMVLFAPNIYVLDYLNETQQLTPEIKSKAIGYLNTGYQRQLNYKHYDGSYSTFGERYGRNQGNTWLTAFVLKTFAQARAYIFIDEAHITQALIWLSQRQKDNGCFRSSGSLLNNAIKGGVEDEVTLSAYITIALLEIPLTVTHPVVRNALFCLESAWKTAQEGDHGSHVYTKALLAYAFALAGNQDKRKEVLKSLNEEAVKKDNSVHWERPQKPKAPVGHFYEPQAPSAEVEMTSYVLLAYLTAQPAPTSEDLTSATNIVKWITKQQNAQGGFSSTQDTVVALHALSKYGAATFTRTGKAAQVTIQSSGTFSSKFQVDNNNRLLLQQVSLPELPGEYSMKVTGEGCVYLQTSLKYNILPEKEEFPFALGVQTLPQTCDEPKAHTSFQISLSVSYTGSRSASNMAIVDVKMVSGFIPLKPTVKMLERSNHVSRTEVSSNHVLIYLDKVSNQTLSLFFTVLQDVPVRDLKPAIVKVYDYYETDEFAIAEYNAPCSKDLGNADYKDDDDKGASHHHHHH
B5: Variant A2M, bait region SEQ ID NO 143, P01023 24-1474 (protein)
chain: SVSGKPQYMVLVPSLLHTETTEKGCVLLSYLNETVTVSASLESVRGNRSLFTDLEAENDVLHCVAFAVPKSSSNEEVMFLTVQVKGPTQEFKKRTTVMVKNEDSLVFVQTDKSIYKPGQTVKFRVVSMDENFHPLNELIPLVYIQDPKGNRIAQWQSFQLEGGLKQFSFPLSSEPFQGSYKVVVQKKSGGRTEHPFTVEEFVLPKFEVQVTVPKIITILEEEMNVSVCGLYTYGKPVPGHVTVSICRKYSDASDCHGEDSQAFCEKFSGQLNSHGCFYQQVKTKVFQLKRKEYEMKLHTEAQIQEEGTVVELTGRQSSEITRTITKLSFVKVDSHFRQGIPFFGQVRLVDGKGVPIPNKVIFIRGNEANYYSNATTDEHGLVQFSINTTNVMGTSLTVRVNYKDRSPCYGYQWVSEEHEEAHHTAYLVFSPSKSFVHLEPMSHELPCGHTQTVQAHYILNGGTLLGLKKLSFYYLIMAKGGIVRTGTHGLLVKQEDMKGHFSISIPVKSDIAPVARLLIYAVLPTGDVIGDSAKYDVENCLANKVDLSFSPSQSLPASHAHLRVTAAPQSVCALRAVDQSVLLMKPDAELSASSVYNLLPEKDLTGFPGPLNDQDDEDCINRHNVYINGITYTPVSSTNEKDMYSFLEDMGLKAFTNSKIRKPKMCPQLEQYEMHGPIPENFFGVSEDLVVQIEGEGEGEGEAIPMSIPTEPHTKLRKYFPETWIWDLVVVNSAGVAEVGVTVPDTITEWKAGAFCLSEDAGLGISSTASLRAFQPFFVELTMPYSVIRGEAFTLKATVLNYLPKCIRVSVQLEASPAFLAVPVEKEQAPHCICANGRQTVSWAVTPKSLGNVNFTVSAEALESQELCGTEVPSVPEHGRKDTVIKPLLVEPEGLEKETTFNSLLCPSGGEVSEELSLKLPPNVVEESARASVSVLGDILGSAMQNTQNLLQMPYGCGEQNMVLFAPNIYVLDYLNETQQLTPEIKSKAIGYLNTGYQRQLNYKHYDGSYSTFGERYGRNQGNTWLTAFVLKTFAQARAYIFIDEAHITQALIWLSQRQKDNGCFRSSGSLLNNAIKGGVEDEVTLSAYITIALLEIPLTVTHPVVRNALFCLESAWKTAQEGDHGSHVYTKALLAYAFALAGNQDKRKEVLKSLNEEAVKKDNSVHWERPQKPKAPVGHFYEPQAPSAEVEMTSYVLLAYLTAQPAPTSEDLTSATNIVKWITKQQNAQGGFSSTQDTVVALHALSKYGAATFTRTGKAAQVTIQSSGTFSSKFQVDNNNRLLLQQVSLPELPGEYSMKVTGEGCVYLQTSLKYNILPEKEEFPFALGVQTLPQTCDEPKAHTSFQISLSVSYTGSRSASNMAIVDVKMVSGFIPLKPTVKMLERSNHVSRTEVSSNHVLIYLDKVSNQTLSLFFTVLQDVPVRDLKPAIVKVYDYYETDEFAIAEYNAPCSKDLGNADYKDDDDKGASHHHHHH

Target: Protease Mixtures
Test: cell-based or functional assay

Going from B1 to B2, the Protease Inhibition (% of WT); Protease Mixtures, IGD Substrate rises from 140 % of WT to 210 % of WT.

Compared with B3, B4 is lower in Protease Inhibition (% of WT); Protease Mixtures, IGD Substrate: 190 % of WT for the first, 140 % of WT for the second.

In the case of B5, the Protease Inhibition (% of WT); Protease Mixtures, IGD Substrate is reported as 110 % of WT.

Source: US20230250154A1
